B1: Cyclin-dependent kinase 4 inhibitor C (Homo sapiens), P42773 (parent)
chain: MAEPWGNELASAAARGDLEQLTSLLQNNVNVNAQNGFGRTALQVMKLGNPEIARRLLLRGANPDLKDRTGFAVIHDAARAGFLDTLQTLLEFQADVNIEDNEGNLPLHLAAKEGHLRVVEFLVKHTASNVGHRNHKGDTACDLARLYGRNEVVSLMQANGAGGATNLQ
partner: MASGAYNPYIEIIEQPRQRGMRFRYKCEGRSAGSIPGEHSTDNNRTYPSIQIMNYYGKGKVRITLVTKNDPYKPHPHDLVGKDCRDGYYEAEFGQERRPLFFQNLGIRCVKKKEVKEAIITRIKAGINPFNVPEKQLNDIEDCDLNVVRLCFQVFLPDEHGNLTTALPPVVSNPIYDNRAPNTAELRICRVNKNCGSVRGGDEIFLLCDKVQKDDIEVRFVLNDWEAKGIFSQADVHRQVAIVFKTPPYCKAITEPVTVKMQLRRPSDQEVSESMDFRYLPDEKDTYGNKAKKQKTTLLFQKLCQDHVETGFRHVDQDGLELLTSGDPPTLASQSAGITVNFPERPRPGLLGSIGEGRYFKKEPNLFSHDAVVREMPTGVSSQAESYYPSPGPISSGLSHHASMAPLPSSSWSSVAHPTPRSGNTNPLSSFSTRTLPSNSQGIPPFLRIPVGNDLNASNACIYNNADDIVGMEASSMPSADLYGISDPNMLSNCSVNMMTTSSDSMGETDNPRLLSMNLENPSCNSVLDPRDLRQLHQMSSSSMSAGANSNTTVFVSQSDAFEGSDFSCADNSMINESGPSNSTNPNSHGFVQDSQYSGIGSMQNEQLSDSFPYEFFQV
B2: Fructose-1,6-bisphosphatase 1 (Homo sapiens), P09467 (parent)
chain: MADQAPFDTDVNTLTRFVMEEGRKARGTGELTQLLNSLCTAVKAISSAVRKAGIAHLYGIAGSTNVTGDQVKKLDVLSNDLVMNMLKSSFATCVLVSEEDKHAIIVEPEKRGKYVVCFDPLDGSSNIDCLVSVGTIFGIYRKKSTDEPSEKDALQPGRNLVAAGYALYGSATMLVLAMDCGVNCFMLDPAIGEFILVDKDVKIKKKGKIYSLNEGYARDFDPAVTEYIQRKKFPPDNSAPYGARYVGSMVADVHRTLVYGGIFLYPANKKSPNGKLRLLYECNPMAYVMEKAGGMATTGKEAVLDVIPTDIHQRAPVILGSPDDVLEFLKVYEKHSAQ
B3: Fructose-1,6-bisphosphatase 1 (Homo sapiens), P09467 (parent)
chain: B2 chain
partner: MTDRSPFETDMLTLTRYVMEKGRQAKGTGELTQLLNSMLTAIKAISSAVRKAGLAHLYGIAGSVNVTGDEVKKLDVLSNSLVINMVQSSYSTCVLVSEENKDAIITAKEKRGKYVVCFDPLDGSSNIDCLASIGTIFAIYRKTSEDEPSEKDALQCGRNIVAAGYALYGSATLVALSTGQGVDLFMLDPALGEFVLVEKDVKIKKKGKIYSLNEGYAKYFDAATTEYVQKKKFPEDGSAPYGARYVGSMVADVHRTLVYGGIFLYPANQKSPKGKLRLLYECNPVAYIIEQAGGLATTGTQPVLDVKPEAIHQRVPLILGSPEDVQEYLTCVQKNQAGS
B4: Carboxy-terminal domain RNA polymerase II polypeptide A small phosphatase 1 (Homo sapiens), Q9GZU7 (parent)
chain: MDSSAVITQISKEEARGPLRGKGDQKSAASQKPRSRGILHSLFCCVCRDDGEALPAHSGAPLLVEENGAIPKQTPVQYLLPEAKAQDSDKICVVIDLDETLVHSSFKPVNNADFIIPVEIDGVVHQVYVLKRPHVDEFLQRMGELFECVLFTASLAKYADPVADLLDKWGAFRARLFRESCVFHRGNYVKDLSRLGRDLRRVLILDNSPASYVFHPDNAVPVASWFDNMSDTELHDLLPFFEQLSRVDDVYSVLRQPRPGS
B5: Tuftelin-interacting protein 11 (Homo sapiens), Q9UBB9 (parent)
chain: MSLSHLYRDGEGRIDDDDDERENFEITDWDLQNEFNPNRQRHWQTKEEATYGVWAERDSDDERPSFGGKRARDYSAPVNFISAGLKKGAAEEAELEDSDDEEKPVKQDDFPKDFGPRKLKTGGNFKPSQKGFAGGTKSFMDFGSWERHTKGIGQKLLQKMGYVPGRGLGKNAQGIINPIEAKQRKGKGAVGAYGSERTTQSMQDFPVVDSEEEAEEEFQKELSQWRKDPSGSKKKPKYSYKTVEELKAKGRISKKLTAPQKELSQVKVIDMTGREQKVYYSYSQISHKHNVPDDGLPLQSQQLPQSGKEAKAPGFALPELEHNLQLLIDLTEQEIIQNDRQLQYERDMVVNLFHELEKMTEVLDHEERVISNLSKVLEMVEECERRMQPDCSNPLTLDECARIFETLQDKYYEEYRMSDRVDLAVAIVYPLMKEYFKEWDPLKDCTYGTEIISKWKSLLENDQLLSHGGQDLSADAFHRLIWEVWMPFVRNIVTQWQPRNCDPMVDFLDSWVHIIPVWILDNILDQLIFPKLQKEVENWNPLTDTVPIHSWIHPWLPLMQARLEPLYSPIRSKLSSALQKWHPSDSSAKLILQPWKDVFTPGSWEAFMVKNIVPKLGMCLGELVINPHQQHMDAFYWVIDWEGMISVSSLVGLLEKHFFPKWLQVLCSWLSNSPNYEEITKWYLGWKSMFSDQVLAHPSVKDKFNEALDIMNRAVSSNVGAYMQPGARENIAYLTHTERRKDFQYEAMQERREAENMAQRGIGVAASSVPMNFKDLIETKAEEHNIVFMPVIGKRHEGKQLYTFGRIVIYIDRGVVFVQGEKTWVPTSLQSLIDMAK
partner: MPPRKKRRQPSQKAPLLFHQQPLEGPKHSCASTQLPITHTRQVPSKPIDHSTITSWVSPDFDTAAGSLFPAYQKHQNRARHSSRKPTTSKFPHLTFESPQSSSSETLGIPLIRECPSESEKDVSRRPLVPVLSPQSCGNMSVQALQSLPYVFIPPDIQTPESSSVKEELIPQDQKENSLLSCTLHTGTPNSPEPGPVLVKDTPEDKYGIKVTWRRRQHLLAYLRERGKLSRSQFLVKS
B6: Calcium-binding and coiled-coil domain-containing protein 2 (Homo sapiens), Q13137 (parent)
chain: MEETIKDPPTSAVLLDHCHFSQVIFNSVEKFYIPGGDVTCHYTFTQHFIPRRKDWIGIFRVGWKTTREYYTFMWVTLPIDLNNKSAKQQEVQFKAYYLPKDDEYYQFCYVDEDGVVRGASIPFQFRPENEEDILVVTTQGEVEEIEQHNKELCKENQELKDSCISLQKQNSDMQAELQKKQEELETLQSINKKLELKVKEQKDYWETELLQLKEQNQKMSSENEKMGIRVDQLQAQLSTQEKEMEKLVQGDQDKTEQLEQLKKENDHLFLSLTEQRKDQKKLEQTVEQMKQNETTAMKKQQELMDENFDLSKRLSENEIICNALQRQKERLEGENDLLKRENSRLLSYMGLDFNSLPYQVPTSDEGGARQNPGLAYGNPYSGIQESSSPSPLSIKKCPICKADDICDHTLEQQQMQPLCFNCPICDKIFPATEKQIFEDHVFCHSL
partner: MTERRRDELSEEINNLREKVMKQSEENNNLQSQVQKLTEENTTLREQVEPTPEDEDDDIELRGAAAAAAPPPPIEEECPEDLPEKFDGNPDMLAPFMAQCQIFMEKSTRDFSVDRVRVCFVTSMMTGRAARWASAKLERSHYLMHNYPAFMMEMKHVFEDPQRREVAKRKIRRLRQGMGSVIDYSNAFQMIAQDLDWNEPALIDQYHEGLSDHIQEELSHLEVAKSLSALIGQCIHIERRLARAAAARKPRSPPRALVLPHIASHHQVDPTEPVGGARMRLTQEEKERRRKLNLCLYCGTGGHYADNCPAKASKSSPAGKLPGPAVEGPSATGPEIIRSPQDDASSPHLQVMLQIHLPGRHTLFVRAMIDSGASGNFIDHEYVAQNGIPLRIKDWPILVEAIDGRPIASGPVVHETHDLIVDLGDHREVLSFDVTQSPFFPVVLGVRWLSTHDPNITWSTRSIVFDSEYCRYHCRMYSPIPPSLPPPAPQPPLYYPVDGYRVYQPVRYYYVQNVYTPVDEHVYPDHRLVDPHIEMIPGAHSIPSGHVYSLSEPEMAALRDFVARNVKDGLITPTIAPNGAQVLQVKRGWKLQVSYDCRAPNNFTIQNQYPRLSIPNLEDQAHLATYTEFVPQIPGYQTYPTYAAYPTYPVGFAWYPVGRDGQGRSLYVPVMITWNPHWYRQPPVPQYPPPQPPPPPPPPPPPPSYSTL
B7: Nucleoside diphosphate kinase homolog 5 (Homo sapiens), P56597 (parent)
chain: MEISMPPPQIYVEKTLAIIKPDIVDKEEEIQDIILRSGFTIVQRRKLRLSPEQCSNFYVEKYGKMFFPNLTAYMSSGPLVAMILARHKAISYWLELLGPNNSLVAKETHPDSLRAIYGTDDLRNALHGSNDFAAAEREIRFMFPEVIVEPIPIGQAAKDYLNLHIMPTLLEGLTELCKQKPADPLIWLADWLLKNNPNKPKLCHHPIVEEPY

Variants of: B1
Settings: with rel_human REL

Variant	effect of a mutation on the interaction
T69A	with no effect

Variants of: B2
Settings: with fxr2_human FXR2, P51116

Variant	effect of a mutation on the interaction
G260R	disrupting interaction strength

Variants of: B3
Settings: with FBP2, O00757

Variant	effect of a mutation on the interaction
G260R	disrupting interaction strength

Variants of: B4
Settings: with mbp_human MBP

Variant	effect of a mutation on the interaction
A56T	with no effect

Variants of: B5
Settings: with rhno1_human RHNO1, Q9BSD3

Variant	effect of a mutation on the interaction
R8Q	with no effect
S688L	with no effect

Variants of: B6
Settings: with peg10_human PEG10, Q86TG7

Variant	effect of a mutation on the interaction
T273A	with no effect
P389A	with no effect

Variants of: B7
Settings: with dydc1_human DYDC1, Q8WWB3
Sequence of dydc1_human DYDC1, Q8WWB3 (Q8WWB3 whole entry): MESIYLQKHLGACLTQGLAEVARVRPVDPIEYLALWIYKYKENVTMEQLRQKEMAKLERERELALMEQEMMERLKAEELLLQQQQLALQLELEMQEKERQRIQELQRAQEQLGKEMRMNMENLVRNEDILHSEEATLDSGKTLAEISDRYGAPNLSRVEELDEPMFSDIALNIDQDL

Variant	effect of a mutation on the interaction
S50N	with no effect
L103F	with no effect
I165M	with no effect
